Assay [1] has as its target T1, fragments of rat NgR1 (sNgR310) (Rattus norvegicus, UniProt Q99M75, C43R/T53A).
T1 construct: intact rat NgR1 (aa 27-aa 310); made in house
T1 sequence (Q99M75 27-122 C43R/T53A): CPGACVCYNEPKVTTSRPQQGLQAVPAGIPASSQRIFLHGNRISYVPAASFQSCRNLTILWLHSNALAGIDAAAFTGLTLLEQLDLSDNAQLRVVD
As to the kind of experiment: Western blot of acid/CNBr fragments of sNgR310 probed with 7E11. The class given is binding. The protocol:
(§1) A recombinant fragment of the rat NgR1 that contains all 8 LRR domains and the N- and C-terminal caps (sNgR310) was treated with either acid or cyanogen bromide (CNBr) and separated the fragments by gel electrophoresis. Untreated sNgR310 migrates with an apparent molecular weight of 42 kDa. Acid treatment of sNgR310 produced two major cleavage products of 15 kDa (aa 27-aa 122) and 30 kDa (aa 123-aa 310). CNBr treatment generated three fragments, a 33/35 kDa doublet (aa 27-aa 229), which may represent fragments with heterogeneous glycosylation, a 10 kDa product (aa 241-aa 310), and an 11-amino-acid fragment (as 230-aa 240), which is not retained on the gel. […] Both the 15 kDa acid fragment and the 35 kDa CNBr fragment contained the sequence […] (SEQ ID NO: 1), consistent with 7E11 binding to a single epitope on NgR1.
Background: Immunoblotting shows a protein as a band on a membrane.

For assay [2], the target named is T2, fragments of rat NgR1 (sNgR310) (Rattus norvegicus, UniProt Q99M75, A303T/C287S/E284G).
T2 construct: intact rat NgR1 (aa 27-aa 310); made in house
T2 sequence (Q99M75 241-310 E284G/C287S/A303T): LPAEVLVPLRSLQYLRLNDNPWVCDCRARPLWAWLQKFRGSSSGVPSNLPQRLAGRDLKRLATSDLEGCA
The assay is described as above. Type of assay: binding. The protocol:
as §1

The target of assay [3] is T3, fragments of rat NgR1 (sNgR310) (Rattus norvegicus, UniProt Q99M75, A303T/C287S/C43R/E284G/T53A).
T3 construct: intact rat NgR1 (aa 27-aa 310); made in house
T3 sequence (Q99M75 27-310 C43R/T53A/E284G/C287S/A303T): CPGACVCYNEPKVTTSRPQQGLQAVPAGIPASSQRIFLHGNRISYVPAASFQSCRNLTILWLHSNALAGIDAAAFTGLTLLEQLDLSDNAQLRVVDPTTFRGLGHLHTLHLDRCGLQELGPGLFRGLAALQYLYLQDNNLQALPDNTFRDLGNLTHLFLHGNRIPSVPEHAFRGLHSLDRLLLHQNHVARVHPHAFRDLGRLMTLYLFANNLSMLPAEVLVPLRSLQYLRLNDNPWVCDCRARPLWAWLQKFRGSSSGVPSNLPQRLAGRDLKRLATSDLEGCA
Described as above. Type of assay: binding. The protocol: as §1

Assay [4] deals with T4, fragments of rat NgR1 (sNgR310) (Rattus norvegicus, UniProt Q99M75, C43R/T53A).
T4 construct: intact rat NgR1 (aa 27-aa 310); made in house
T4 sequence (Q99M75 27-229 C43R/T53A): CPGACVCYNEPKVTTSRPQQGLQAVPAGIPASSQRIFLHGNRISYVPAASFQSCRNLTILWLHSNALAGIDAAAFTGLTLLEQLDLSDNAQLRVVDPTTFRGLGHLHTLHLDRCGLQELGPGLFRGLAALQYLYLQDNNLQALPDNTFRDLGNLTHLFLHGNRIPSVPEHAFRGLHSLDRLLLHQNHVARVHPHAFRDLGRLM
The assay is described as above. The class given is binding. The protocol:
as §1
This is another data set of the same source.

The target in assay [5] is T5, fragments of rat NgR1 (sNgR310) (Rattus norvegicus, UniProt Q99M75, A303T/C287S/E284G).
T5 construct: intact rat NgR1 (aa 27-aa 310); made in house
T5 sequence (Q99M75 123-310 E284G/C287S/A303T): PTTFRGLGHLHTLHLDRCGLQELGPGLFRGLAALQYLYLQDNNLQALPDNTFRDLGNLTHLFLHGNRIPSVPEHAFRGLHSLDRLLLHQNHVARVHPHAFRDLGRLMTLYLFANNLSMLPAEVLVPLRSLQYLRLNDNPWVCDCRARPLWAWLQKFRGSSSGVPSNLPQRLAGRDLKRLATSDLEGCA
The assay is described as above. The class given is binding. The protocol: as §1
The source holds these as a separate data set.

Assay [6] addresses T6, cells expressing human Nogo receptor-1 (Homo sapiens, UniProt Q9BZR6).
T6 construct: expressed in transfected cells; host or cells: COS-7 or 293 cells
T6 sequence (Q9BZR6 27-447): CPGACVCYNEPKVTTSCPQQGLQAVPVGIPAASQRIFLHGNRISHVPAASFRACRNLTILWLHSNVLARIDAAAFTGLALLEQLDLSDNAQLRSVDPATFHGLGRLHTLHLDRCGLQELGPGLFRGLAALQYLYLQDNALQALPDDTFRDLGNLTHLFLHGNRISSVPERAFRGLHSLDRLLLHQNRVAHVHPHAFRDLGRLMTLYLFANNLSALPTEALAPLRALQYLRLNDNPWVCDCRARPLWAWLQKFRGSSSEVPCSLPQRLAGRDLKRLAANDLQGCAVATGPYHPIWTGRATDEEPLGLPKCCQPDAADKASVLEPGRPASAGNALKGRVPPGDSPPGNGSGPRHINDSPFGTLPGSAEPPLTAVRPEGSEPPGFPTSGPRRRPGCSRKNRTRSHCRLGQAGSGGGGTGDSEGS
As to the kind of experiment: Immunohistochemistry on fixed and live COS-7 or 293 cells expressing human Nogo receptor-1. The class given is cell-based. Conditions: immunohistochemical staining. The protocol:
To further characterize the binding properties of anti-Nogo receptor-1 mAbs produced as described in Example 1, we compared binding to both fixed and live COS-7 or 293 cells expressing rat or human Nogo receptor-1.
Nogo receptor-1 transfected and non-transfected cells were plated in 8-well Lab-Tek™ culture slides, fixed with 4% paraformaldehyde for 15 minutes, blocked with 10% normal goat serum, 0.1% Triton X-100 in PBS for 1 hour. Mab 7E11 was added at 15 μg/ml and 1.5 μg/ml in blocking solution and incubated for 2 hours at room temperature; Alexa®-conjugated secondary antibody anti-mouse (Molecular Probes) was incubated at a 1:300 dilution in blocking solution for 1 hour; DAPI was added at 5 μg/ml to the secondary antibody to label all nuclei.
Transfected and non-transfected cells were plated in 8 well Lab-Tek™ culture slides, blocked with FACS buffer (containing 4% donor horse serum) for 30 minutes at 4° C., incubated with 7E11 at 15 μg/ml and 1.5 μg/ml in FACS buffer for 1 hour at 4° C., rinsed and incubated with secondary antibody anti-mouse-Alexa® (1:300 in FACS buffer) for 30 minutes at 4° C.

The target in assay [7] is T7, panel of Nogo receptor-1 polypeptides (sNogoR310-Fc, sNogoR344-Fc, p-617, p-618, p-4, p-5) (Rattus norvegicus, UniProt Q99M75).
T7 construct: made in house
In words: Antibody specificity ELISA with a panel of Nogo receptor-1 polypeptides. The class given is binding. From the text: To determine the specificity of the monoclonal and Fab-phage antibodies produced in Examples 1 and 2, we performed an ELISA using a panel of Nogo receptor-1 polypeptides. The panel consisted of sNogoR310-Fc (a fusion protein comprising amino acids 26-310 of rat Nogo receptor-1 and a rat Fc fragment), sNogoR344-Fc (see supra), polypeptide p-617 (SEQ ID NO: 1), polypeptide p-618 (a 19-amino acid polypeptide from the LRR7 region of rat Nogo receptor-1; FIG. 2; SEQ ID NO: 11) and polypeptides p-4 and p-5 (polypeptides from the LRR5 and LRRCT regions of Nogo receptor-1, respectively). Ovalbumin and BSA were used as controls.
On the technique in general: An ELISA detects its analyte on a solid surface through an enzyme-linked reagent.

In the next assay the target is T8, human NgR1 (Homo sapiens, UniProt Q9BZR6).
T8 sequence (Q9BZR6 27-447): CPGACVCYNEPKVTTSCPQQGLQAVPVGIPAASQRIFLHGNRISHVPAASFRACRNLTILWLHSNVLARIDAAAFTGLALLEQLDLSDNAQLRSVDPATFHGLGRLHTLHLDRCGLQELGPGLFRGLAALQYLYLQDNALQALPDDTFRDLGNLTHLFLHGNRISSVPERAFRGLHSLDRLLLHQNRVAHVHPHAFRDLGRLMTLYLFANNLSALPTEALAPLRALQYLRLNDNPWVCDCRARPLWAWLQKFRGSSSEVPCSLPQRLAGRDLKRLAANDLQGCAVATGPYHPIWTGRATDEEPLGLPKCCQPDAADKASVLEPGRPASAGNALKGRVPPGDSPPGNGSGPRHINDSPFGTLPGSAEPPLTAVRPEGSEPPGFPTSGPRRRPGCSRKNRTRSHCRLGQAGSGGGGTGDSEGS
In words: Antibody binding specificity: human Nogo receptor-1.

Entries after “also recorded” stand apart in the source; their conditions may differ.

B1: 7E11: murine monoclonal anti-Nogo receptor-1 antibody, immunogen rat Nogo receptor-1 residues 110-125, IgG1 kappa, ATCC PTA-4587 (antibody, V domains shown)
VH: VQLQESGAELVMPGASVKMSCKASGYTFTDYWMHWVKQRPGQGLEWIGAIDPSDSYSSYNQNFKGKATLTVDGSSSTAYMQLSSLTSEDSAVYYCARRITEAGAWFAYWGQGTTVT
VL: MKLPVRLLVLMFWIPASSSDVVMTQTPLSLPVSLGDQASISCRSSQSLVHSNGNTYLHWYLQKPGQSPKLLIYKVSNRFSGVPDRFSGSGSGTDFTLKISRVDAEDLGVYFCSQSTHVPFTFGGGTKLEIKRADAAPTVSISHH
modifications: 7E11 heavy chain; 7E11 light chain
notes: murine monoclonal anti-Nogo receptor-1 antibody, immunogen rat Nogo receptor-1 residues 110-125, IgG1 kappa, ATCC PTA-4587
With B1, the “binding to the 15 kDa acid fragment (aa 27-aa 122)” value in assay [1] was “bound”. The “binding to the 10 kDa CNBr fragment (aa 241-aa 310)” value in assay [2] was “did not bind”. Also, in assay [3], the “binding to intact rat NgR1 (aa 27-aa 310)” value is recorded as “bound”. Besides, in assay [4], the “binding to the 35 kDa CNBr fragment (aa 27-aa 229)” value is given as “bound”. For the same molecule, the “binding to the 30 kDa acid fragment (aa 123-aa 310)” value in assay [5] is recorded as “did not bind”. Moreover, in assay [6], the “binding to fixed and live cells expressing human Nogo receptor-1” value is “bound”. Also, the “binding to polypeptide p-617 (SEQ ID NO: 1)” value in assay [7] is “specifically bound”. Further, in the assay with human NgR1, the “binding to human Nogo receptor-1” value is listed as “bound; also recorded: binds well”.

The values are drawn from US9228015B2, “Nogo receptor antagonists and methods of increasing neurite outgrowth” (Biogen Idec MA Inc., priority 2006, dated 2016).
